For one substance, Kd results are on record in paper PMC13189263.

One test addresses N6-I2 Ab (human). Kind of test: SPR. (SPR reads the build-up and loss of mass on a sensor chip optically.)
A further test addresses N6-I3 Ab (human). As to the kind of experiment: SPR.

On to BG505 MD39.3 SOSIP trimer, for which the results for the Kd in the test with N6-I2 Ab (human) and with N6-I3 Ab (human) were 5.7 nM and 3 nM, respectively.
